Assay results from PMC7239026, “PepO is a target of the two-component systems VicRK and CovR required for systemic virulence of Streptococcus mutans” (Virulence, 2020).

Assays:
[1] = molecular target: T1, human complement protein C1q (human, UniProt P02745 23-245; P02746 28-253; P02747 29-245); assay: ELISA; human glycoproteins coated on 96-well plates (5 ug/mL in 75 mM sodium carbonate buffer pH 9.6, 18 h at 4°C); blocked with 3% fish gelatin; rPepO (10 to 50 ug/mL) or rCnmA (0.125 to 2 ug/mL) in 50 mM HEPES pH 7.4, 150 mM NaCl, 2 mM CaCl2, 50 ug/mL BSA, 2 h at 37°C; bound protein detected with rabbit antiserum and peroxidase conjugate, A450 nm; wells with 1% BSA as control; details: both partners purified
T1 construct: Complement C1q subcomponent subunit A, human; Complement C1q subcomponent subunit B, human; Complement C1q subcomponent subunit C, human; Named only as a whole; source: bought: Calbiochem

[2] = molecular target: T2, human C4b-binding protein (C4BP) (human, UniProt P04003 49-597; P20851 18-252); assay: as above; details: both partners purified
T2 construct: Named only as a whole ('a multimeric glycoprotein'); source: bought: Athens Research & Technology
T2 sequence (looked up) 1: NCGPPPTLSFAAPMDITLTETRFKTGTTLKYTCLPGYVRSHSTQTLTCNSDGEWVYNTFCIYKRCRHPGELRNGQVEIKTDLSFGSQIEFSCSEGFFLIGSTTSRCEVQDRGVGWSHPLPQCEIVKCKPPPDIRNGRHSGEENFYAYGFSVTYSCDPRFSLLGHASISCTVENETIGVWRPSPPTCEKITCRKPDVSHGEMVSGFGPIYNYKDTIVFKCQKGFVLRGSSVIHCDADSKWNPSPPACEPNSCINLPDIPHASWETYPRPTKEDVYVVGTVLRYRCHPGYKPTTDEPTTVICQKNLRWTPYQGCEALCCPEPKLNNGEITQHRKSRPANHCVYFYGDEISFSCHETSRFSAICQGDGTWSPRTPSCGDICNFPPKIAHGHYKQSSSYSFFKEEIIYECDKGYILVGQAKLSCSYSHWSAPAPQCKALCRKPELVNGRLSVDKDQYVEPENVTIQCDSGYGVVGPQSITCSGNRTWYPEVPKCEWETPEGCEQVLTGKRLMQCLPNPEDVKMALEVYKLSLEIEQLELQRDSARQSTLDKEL
T2 sequence (looked up) 2: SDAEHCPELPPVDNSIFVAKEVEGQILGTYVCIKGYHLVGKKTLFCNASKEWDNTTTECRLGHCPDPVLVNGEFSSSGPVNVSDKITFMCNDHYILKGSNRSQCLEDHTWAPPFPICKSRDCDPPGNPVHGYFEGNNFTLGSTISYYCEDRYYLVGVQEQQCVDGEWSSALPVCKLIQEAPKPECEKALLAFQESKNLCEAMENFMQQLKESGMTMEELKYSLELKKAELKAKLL

T1 sequence (P02745 23-245, chain 1 of 3): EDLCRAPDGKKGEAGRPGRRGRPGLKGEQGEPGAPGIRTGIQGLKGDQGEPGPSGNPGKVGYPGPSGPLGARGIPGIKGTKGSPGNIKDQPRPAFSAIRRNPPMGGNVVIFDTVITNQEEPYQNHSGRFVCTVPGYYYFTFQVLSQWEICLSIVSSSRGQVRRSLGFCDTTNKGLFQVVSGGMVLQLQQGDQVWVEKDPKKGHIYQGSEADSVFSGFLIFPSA
T1 sequence (P02746 28-253, chain 2 of 3): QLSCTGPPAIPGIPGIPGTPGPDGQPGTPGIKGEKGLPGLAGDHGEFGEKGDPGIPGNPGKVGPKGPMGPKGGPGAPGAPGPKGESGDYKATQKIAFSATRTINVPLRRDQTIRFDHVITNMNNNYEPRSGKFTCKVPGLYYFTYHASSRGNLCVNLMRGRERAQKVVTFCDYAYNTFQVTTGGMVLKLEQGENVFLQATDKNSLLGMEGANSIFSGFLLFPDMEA
T1 sequence (P02747 29-245, chain 3 of 3): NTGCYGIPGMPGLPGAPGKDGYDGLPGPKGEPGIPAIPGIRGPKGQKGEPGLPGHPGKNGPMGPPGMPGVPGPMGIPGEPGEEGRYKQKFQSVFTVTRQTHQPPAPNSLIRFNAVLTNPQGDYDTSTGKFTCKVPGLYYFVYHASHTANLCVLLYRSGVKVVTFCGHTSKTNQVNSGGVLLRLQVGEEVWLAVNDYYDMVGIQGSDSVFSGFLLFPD

B1: His-tagged PepO recombinant protein (rPepO), endopeptidase O of Streptococcus mutans (natural protein)
chain: MVRLQDDFYNAVNGQWEEAAVIPDDKPRTGGFSDLADDIEDLMLETTDKWLDGKDVPDDSILQNFVKFHRQVADYDAREETGVKPVLPLIEEYKSLTSFADFASNIATYEMAGKPNELPFGVAPDFMNAQMNVLWAEAPNLILPDTTYYAEGNDKGKELLAKWRTMQEELLPKFGFEEAEIKDLLDKVLTLDAKLAQYVLSSEESSEYVKLYHPYDWADFTKLTPELPLDAIFTQILGQKPDKVIVPEERFWTNFAAEFYSEKNWPFLKATLVLAAASSYNSYLTDDIRILSGSYNRALSGTPQAMGKKKAAFYLAQGPYNQALGLWYAGEKFSPEAKKDVEAKVATMIEVYKERLHKTDWLAQETRNKAITKLNVITPHIGYPEQLPKTYAQKIIDDNLSLVENAQNLAKISIAYNWSKWNQPVDRSEWHMPAHMVNAYYDPQQNQIVFPAAILQAPFYSLEQSSSANYGGIGAVIAHEISHAFDTNGASFDENGSLNNWWTDEDYAAFKKRTDRVVEQFEGLDSYGAKVNGQLTVSENVADLGGLACALEAAKREADFSVRDFFINFATIWRMKARDEYMQMLASIDVHAPAKWRTNVTITNFDEFHQEFAVKEGDGMWRDEDKRVIIW
notes: PepO (endopeptidase O) of Streptococcus mutans strain UA159; entire PepO coding region (1896 bp) amplified from UA159 genomic DNA and cloned into pET-16B; Vector pET-16B; also called full-length PepO; source: E. coli BL21, purified under native conditions (Ni-NTA), dialyzed in PBS
binding result [1]: binds | binding result [2]: binds
